Source: US20230227547A1, “ANTIBODY-PAYLOAD CONJUGATES WITH ENHANCED DELIVERY DOMAIN AND USES THEREOF” (IPROGEN BIOTECH INC., priority 2019, published 2023)

Biological target: CD22 (human) (UniProt P20273)
Assay: cell-based or functional assay

Row | Substance | IC50 (nM), XTT viability, RL cells, 72 h [nM] | IC50 (nM), XTT viability, Ramos cells, 72 h [nM]
1 | Anti-CD22 mAb-LL37-MMAE8 (Inotuzumab ADC with LL37) (antibody) | 0.235 | 0.035
2 | Anti-CD22 mAb-MMAE8 (Inotuzumab ADC) (antibody) | 0.26 | 0.04
